Data taken from article PMC7049163 (Proceedings of the National Academy of Sciences of the …, 2020).

Target: the molecule itself
Assay: crystal structure

B1: copper-containing nitrite reductase from Geobacillus thermodenitrificans (enzyme)
chain: ESKNKTAATQQSEPNVIAAHKGVNQAPVPLKMERVGPHDVHIEMTAQITDIEIDKGKIYKAWTFNGQAPGPLVVVNEGDTIHFTLKNMDPVVPHSMDFHAVHASPSKDFIDVMPNKSGTFTYPANKPGVFMYHCGTKPVLQHIANGMHGVIIVKPKNGYPTDKEVDREYVLIQNEWYKYNDMNDFQNGVPSYVVFSSKALKPGDPNTNGDTFTLKEKPLLAKVGEKIRLYINNVGPNEVSSFHVVGTVFDDVYLDGNPNNHLQGMQTVMLPASGGAVVEFTVTRPGTYPIVTHQFNHAQKGAVAMLKVTETGEDDGTETSGH
- stoichiometry N: 3
